# T1: human Eva1 protein (human, UniProt O60487 27-150, limits assumed)
# T1 construct: Soluble analyte in the SPR work and partner in the crystal; it calls it 'the antigen, that is, the Eva1 protein'; also called human-derived Eva1 protein; hEva1
# T1 sequence: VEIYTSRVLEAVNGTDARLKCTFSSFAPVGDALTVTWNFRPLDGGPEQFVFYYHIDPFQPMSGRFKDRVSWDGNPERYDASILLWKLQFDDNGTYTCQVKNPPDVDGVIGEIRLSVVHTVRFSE
# T2: human Eva1 mutant with arginine at position 103 substituted with alanine (human, UniProt O60487 27-150, limits assumed)
# T2 construct: also called R103A
# T2 chain: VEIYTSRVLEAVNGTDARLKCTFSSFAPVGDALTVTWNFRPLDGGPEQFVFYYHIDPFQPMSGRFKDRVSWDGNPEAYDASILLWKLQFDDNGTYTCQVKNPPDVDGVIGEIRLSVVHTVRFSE
# T3: human Eva1 mutant with glutamic acid at position 102 substituted with alanine (human, UniProt O60487 27-150, limits assumed)
# T3 construct: also called E102A
# T3 chain: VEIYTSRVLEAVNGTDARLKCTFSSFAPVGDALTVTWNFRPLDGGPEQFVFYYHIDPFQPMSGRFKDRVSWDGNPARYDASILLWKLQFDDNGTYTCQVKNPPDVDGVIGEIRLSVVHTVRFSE
# T4: human Eva1 S96A mutant (human, UniProt O60487 27-150, limits assumed)
# T4 chain: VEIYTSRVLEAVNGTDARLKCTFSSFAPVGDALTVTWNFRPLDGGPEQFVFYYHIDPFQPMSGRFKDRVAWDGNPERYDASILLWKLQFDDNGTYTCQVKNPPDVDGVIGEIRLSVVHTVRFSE
# T5: human Eva1 Y30A mutant (human, UniProt O60487 27-150, limits assumed)
# T5 chain: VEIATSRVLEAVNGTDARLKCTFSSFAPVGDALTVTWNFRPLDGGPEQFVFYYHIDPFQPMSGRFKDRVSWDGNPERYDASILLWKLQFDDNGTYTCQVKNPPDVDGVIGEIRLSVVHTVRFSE
# T6: human Eva1 Y104A mutant (human, UniProt O60487 27-150, limits assumed)
# T6 chain: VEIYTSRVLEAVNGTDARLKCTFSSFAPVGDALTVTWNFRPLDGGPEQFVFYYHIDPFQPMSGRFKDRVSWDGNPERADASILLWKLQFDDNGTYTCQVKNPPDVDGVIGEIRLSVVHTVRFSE
# T7: mouse Eva1 protein (mouse, UniProt O70255 27-150, limits assumed)
# T7 construct: Used in SPR; also called mouse-derived Eva1 protein; mEva1
# T7 sequence: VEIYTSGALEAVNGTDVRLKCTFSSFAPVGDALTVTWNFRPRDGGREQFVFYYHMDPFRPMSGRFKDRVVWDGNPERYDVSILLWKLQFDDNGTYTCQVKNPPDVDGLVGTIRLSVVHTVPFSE
# T8: human Eva1 mutant (L68R, P72R) (human, UniProt O60487 27-150, limits assumed)
# T8 construct: Human residues replaced by the mouse ones; also called (L68R and P72R) double mutant
# T8 chain: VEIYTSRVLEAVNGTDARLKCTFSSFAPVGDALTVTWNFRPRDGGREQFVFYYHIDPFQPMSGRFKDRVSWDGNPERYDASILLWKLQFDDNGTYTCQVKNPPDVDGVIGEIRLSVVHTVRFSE
# T9: human Eva1 mutant (R33G, V34A, V134L, I135V, E137T) (human, UniProt O60487 27-150, limits assumed)
# T9 construct: Human residues replaced by the mouse ones
# T9 chain: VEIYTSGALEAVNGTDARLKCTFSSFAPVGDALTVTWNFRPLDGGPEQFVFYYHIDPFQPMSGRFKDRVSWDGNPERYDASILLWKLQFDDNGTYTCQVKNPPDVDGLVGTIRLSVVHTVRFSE
# T10: human Eva1 P72R mutant (human, UniProt O60487 27-150, limits assumed)
# T10 chain: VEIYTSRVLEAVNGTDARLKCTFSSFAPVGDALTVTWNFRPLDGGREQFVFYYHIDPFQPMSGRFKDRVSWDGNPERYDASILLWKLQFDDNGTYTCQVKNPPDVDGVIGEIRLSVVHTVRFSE
# T11: human Eva1 mutant (I81M) (human, UniProt O60487 27-150, limits assumed)
# T11 construct: Human residue replaced by the mouse one
# T11 chain: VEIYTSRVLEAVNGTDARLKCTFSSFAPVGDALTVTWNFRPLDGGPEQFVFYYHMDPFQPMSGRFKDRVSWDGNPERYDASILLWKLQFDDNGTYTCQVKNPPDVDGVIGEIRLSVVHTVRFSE
# T12: human Eva1 L68R mutant (human, UniProt O60487 27-150, limits assumed)
# T12 chain: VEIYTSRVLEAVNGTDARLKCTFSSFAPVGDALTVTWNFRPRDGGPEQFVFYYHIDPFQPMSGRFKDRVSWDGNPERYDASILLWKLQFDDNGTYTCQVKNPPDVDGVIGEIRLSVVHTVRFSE
# T13: human Eva1 mutant (A43V, S96V, Q85R) (human, UniProt O60487 27-150, limits assumed)
# T13 construct: Human residues replaced by the mouse ones
# T13 chain: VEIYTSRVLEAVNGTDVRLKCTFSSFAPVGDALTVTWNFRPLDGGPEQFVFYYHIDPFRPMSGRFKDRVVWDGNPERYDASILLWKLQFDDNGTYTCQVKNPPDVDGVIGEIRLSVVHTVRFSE
# Assays:
# human Eva1 protein [1] = target: T1, human Eva1 protein; assay: SPR (Biacore), antibody captured by anti-mouse IgG, Eva1 flowed
# Excerpt: (§1) To select hybridomas for producing antibodies having a higher antigen affinity from the 28 hybridomas, a surface plasmon resonance assay system Biacore was used to calculate the KD value and so forth of each antibody (hereinafter also referred to as “candidate antibody”). Concretely, first, an antibody capable of capturing mouse IgG was immobilized on a dextran-coated sensor chip (CMS, manufactured by GE health care). Then, this antibody captured each candidate antibody on the sensor chip. Subsequently, the antigen, that is, the Eva1 protein was flowed. Note that, in flowing the antigen, a solution of 10 mM-Tris-HCl (pH 7.5), 150 mM-NaCl, and 3 mM-EDTA (pH 8.0) was used. Moreover, as a solution for dissociating the antigen from the candidate antibody (captured candidate-antibody resuscitation solution), a 10 mM glycine solution (pH 1.7) was used. Thus, using these solutions, the binding reaction and the dissociation reaction between each candidate antibody and the antigen were detected with Biacore, and analyzed using the attached software.
# [2] = target: T2, human Eva1 mutant with arginine at …; assay: SPR with alanine mutants
# [3] = target: T3, human Eva1 mutant with glutamic acid at …; assay: SPR with alanine mutants
# human Eva1 S96A mutant = target: T4, human Eva1 S96A mutant; assay: SPR with alanine mutants
# human Eva1 Y30A mutant = target: T5, human Eva1 Y30A mutant; assay: SPR
# human Eva1 protein [4] = target: T1, human Eva1 protein; assay: SPR (Biacore), as for the mouse antibodies
# Excerpt: as §1
# Further, the binding reaction and the dissociation reaction between the B2E5-48 chimeric antibody and the antigen were detected with Biacore as in the case of the mouse antibodies.
# human Eva1 Y104A mutant = target: T6, human Eva1 Y104A mutant; assay: SPR with alanine mutants
# human Eva1 protein [5] = target: T1, human Eva1 protein; assay: SPR
# mouse Eva1 protein = target: T7, mouse Eva1 protein; assay: SPR
# [6] = target: T8, human Eva1 mutant (L68R, P72R); assay: SPR
# [7] = target: T9, human Eva1 mutant (R33G, V34A, V134L, …); assay: SPR
# human Eva1 P72R mutant = target: T10, human Eva1 P72R mutant; assay: SPR
# human Eva1 mutant (I81M) = target: T11, human Eva1 mutant (I81M); assay: SPR
# human Eva1 L68R mutant = target: T12, human Eva1 L68R mutant; assay: SPR
# [8] = target: T13, human Eva1 mutant (A43V, S96V, Q85R); assay: SPR
binder,measurement,setting,value
"A5D11-10 mouse antibody (antibody, V domains shown, Mouse monoclonal from a hybridoma; also called A5D11-10 antibody) VH: EVQLKESGPGLVQPSQSLSITCTVSGFSLTRYGVHWVRQSPGKGLEWLGVIWSGGSTDYNAAFISRLSISKDNSKSQVFFKMNSLQANDTAIYYCARNGYDGGYAMDYWGQGTSVTVSS VL: DIQMTQTTSSLSASLGDRVTISCRASQDISNYLNWYQQKPDGTVKLLIYYTSRLHSGVPSRFSGSGSRIDYSLTISNLEQEDFATYFCQQSDTLPPWTFGGGTKLEIK",Kd,human Eva1 protein [1],0.00583 µM
same,koff,human Eva1 protein [1],0.00212 s⁻¹
same,kon,human Eva1 protein [1],364000 M⁻¹ s⁻¹
same,fold increase of KD against wild type human Eva1,[2],~25 fold
same,fold increase of KD against wild type human Eva1,[3],~25 fold
same,binding result,human Eva1 S96A mutant,binds
same,binding result,human Eva1 Y30A mutant,no binding
"B2E5-48 chimeric antibody (antibody, V domains shown) VH: QVQLQQPGAELVKPGASVKLSCKASGYTFTNYWMHWVKLRPGQGFEWIGEINPTNGGTDYNEKFKRKATLTVDKSSSTAYMQLSSLTSEDSAVYYCTIYTTALDYWGQGTTLTVSS VL: QIVLTQSPALMSASPGERVTLTCSASSSVGYMYWYQQKPGSSPKPWIYVTSNLASGVPARFSGSGSGTSYSLTISSMEAEDAATYYCQQWSSNPPTFGAGTKLELK",Kd,human Eva1 protein [4],0.0152 µM
same,koff,human Eva1 protein [4],0.00747 s⁻¹
same,kon,human Eva1 protein [4],490000 M⁻¹ s⁻¹
"C3 mouse antibody (antibody, mouse IgG1, V domains shown, Mouse monoclonal from a hybridoma; also called C3 antibody) VH: EVKLVESGGGLVQPGGSLKLSCAASGFTFSSYTMSWVRQTPEKRLEWVAYITTGAGRTYYPDTVKGRFTISRDNAKNTLYLQMSSLKSEDTAMYYCARHRGDYWGQGTSVTVSS VL: SIVMTQTPKFLLVSAGDRVTITCKASQSVSNDVAWYQQKPGQSPKLLIYYASNRFTGVPDRFTGSGYGTDFTFTISTVQAEDLAVYFCQQDYSSPWTFGGGTKLEIK",Kd,human Eva1 protein [1],0.0091 µM
same,koff,human Eva1 protein [1],0.00831 s⁻¹
same,kon,human Eva1 protein [1],918000 M⁻¹ s⁻¹
same,binding result,human Eva1 Y104A mutant,binds
same,KD for human Eva1 against KD for mouse Eva1,human Eva1 protein [5],~0.1
"B2E5-48 mouse antibody (antibody, mouse IgG2b, V domains shown, Mouse monoclonal from a hybridoma; also called B2E5-48 antibody) VH: QVQLQQPGAELVKPGASVKLSCKASGYTFTNYWMHWVKLRPGQGFEWIGEINPTNGGTDYNEKFKRKATLTVDKSSSTAYMQLSSLTSEDSAVYYCTIYTTALDYWGQGTTLTVSS VL: QIVLTQSPALMSASPGERVTLTCSASSSVGYMYWYQQKPGSSPKPWIYVTSNLASGVPARFSGSGSGTSYSLTISSMEAEDAATYYCQQWSSNPPTFGAGTKLELK",Kd,human Eva1 protein [1],0.0117 µM
same,koff,human Eva1 protein [1],0.00808 s⁻¹
same,kon,human Eva1 protein [1],689000 M⁻¹ s⁻¹
same,binding result,mouse Eva1 protein,no binding
same,binding result,[6],no binding
same,binding result,[7],binds
same,binding result,human Eva1 P72R mutant,no binding
same,binding result,human Eva1 mutant (I81M),binds
same,binding result,human Eva1 L68R mutant,binds
same,binding result,[8],binds

# — patent publication US20190256610A1 (NATIONAL UNIVERSITY CORPORATION HOKKAIDO UNIVERSITY, published 2019)
